From IntAct's records for PubMed 20485264 come the findings set out here.

For experiment [1], the target named is ipka_human PKIA (UniProt P61925).
For experiment [2] the target is unchanged. The source holds these as a separate data set.
Experiment [3] has the same target. The source holds these as a separate data set.
Experiment [4] has the same target. This is another data set of the same source.
Experiment [5] concerns the target xpo1_yeast CRM1 (UniProt P30822).

For the substance “Exportin-1 (Saccharomyces cerevisiae) (from UniProt P30822) P754D”, the “effect of a mutation on the interaction” value in experiment [1] is given as “increasing interaction”.

Consider “Exportin-1 (Saccharomyces cerevisiae) (from UniProt P30822) V441A;L442A”, for which the “effect of a mutation on the interaction” value in experiment [2] is reported as “increasing interaction”.

For the substance “Exportin-1 (Saccharomyces cerevisiae) (from UniProt P30822) V441D”, in experiment [3], the “effect of a mutation on the interaction” value is “increasing interaction”.

Regarding “Exportin-1 (Saccharomyces cerevisiae) (from UniProt P30822) V443D”, in experiment [4], the “effect of a mutation on the interaction” value is on record as “increasing interaction”.

Consider “cAMP-dependent protein kinase inhibitor alpha (Homo sapiens) (from UniProt P61925) I47A”, for which, in experiment [5], the “effect of a mutation on the interaction” value was “disrupting interaction”.
